In general, Kd refers to the free concentration of one partner at which half of the binding sites on the other are occupied at equilibrium, for simple one-to-one binding. A low value points to a tighter complex. The term stoichiometry N denotes a count of units in the complex or per binding partner.

Experiment [1] concerns the target L7/L12-depleted 70S ribosomes reconstituted with recombinant L12 (E. coli | E. coli (endogenous in JE28)) (UniProt P0A7K2). Nature of the experiment: co-sedimentation.
The target of experiment [2] is L7/L12-depleted 70S ribosomes (E. coli (endogenous in JE28)) (UniProt P0A7J3). Kind of experiment: SEC. For orientation: SEC sorts molecules by how far they enter the pores of the column.
UniProt P0A7J3, sequence (P0A7J3 whole entry, looked up): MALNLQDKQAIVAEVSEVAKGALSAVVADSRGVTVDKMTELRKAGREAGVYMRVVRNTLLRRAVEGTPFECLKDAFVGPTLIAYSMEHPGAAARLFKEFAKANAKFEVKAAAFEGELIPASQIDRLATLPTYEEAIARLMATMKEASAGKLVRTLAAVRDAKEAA
Experiment [3] shares this target. Kind of experiment: co-sedimentation.
Experiment [4] deals with 70S ribosomes (E. coli JE28, with endogenous L7/L12) (E. coli (endogenous in JE28)) (UniProt P0A7K2). Kind of experiment: other fluorescence titration.
The target in experiment [5] is recombinant ribosomal protein L12 (E. coli) (UniProt P0A7K2). Kind of experiment: SEC.

Where only a bound is given, the exact number is not on record here.

Turning to “release factor 3 (from UniProt P0A7I4 1-529) (enzyme)”, the percent binding relative to complete 70S in experiment [1] is 100%.

In the case of “initiation factor 2 (from UniProt P0A705 1-890) (enzyme)”, in experiment [1], the percent binding relative to complete 70S was determined as 100%.

Consider “leader peptidase A (from UniProt P60785 1-599) (enzyme)”, for which the percent binding retained in experiment [2] and in experiment [3] was greater than 50% each time.

In experiment [2], “elongation factor G (from UniProt P0A6M8 1-704) (enzyme)” gave a percent co-eluted with the ribosomes of 20%.

Take “EF-G-591 coupled with 5-iodoacetomido fluorescein (from UniProt P0A6M8 1-704) (enzyme)”: the dissociation constant (Kd) in experiment [4] is 23 nM.

On to “recombinant ribosomal protein L12 (from UniProt P0A7K2 1-121) (natural protein)”, for which the stoichiometry N in experiment [5] was 2.

The record behind these values is article PMC5568246.
